According to US20030211563A1 (UNIVERSITY OF VIRGINIA PATENT FOUNDATION, published 2003):

Molecular target: T1, tssk 2 fused to the GAL4 DNA binding domain (DNA-BD) (human, UniProt P04386 1-147 (Saccharomyces cerevisiae entry), limits assumed)
T1 construct: Yeast two-hybrid bait in reporter strain AH109; also called bait gene (tssk 2); TSSK2 fusion protein with the DNA-BD
Assay: yeast two-hybrid, growth in His-free medium
Method: In this experiment, a bait gene (tssk 2) was first transformed into the reporter strain as a fusion to the GAL4 DNA binding domain (DNA-BD). A second plasmid that expressed tsks as fusion to the GAL 4 activation domain (AD) was also introduced into the AH109 reporter strain. Western blots were performed to confirm expression of fusion proteins in yeast. […] This interaction was used as a positive control. […] Neither GAL-AD alone nor the fusion proteins between GAL-AD and TSKS or GAL-AD and SV40 Large T antigen had the ability to activate transcription of the His gene.

- binding result: no binding
B1: GAL4 activation domain alone (GAL-AD plasmid) (other, UniProt P04386 768-881, looked up)
chain: ANFNQSGNIADSSLSFTFTNSSNGPNLITTQTNSQALSQPIASSNVHDNFMNNEITASKIDDGNNSKPLSPGWTDQTAYNAFGITTGMFNTTTMDDVYNYLFDDEDTPPNPKKE
notes: Empty prey control in the yeast two-hybrid experiment; also called GAL-AD alone
